For assay [1], the target named is T1, GST-WWP1.1.
T1 construct: also called WWP1 WW domain 1; not shown: glutathione S-transferase (GST) fusion partner
Put plainly: TRF (DELFIA) plate assay, GST-WW domain coated at 30 µg/mL, titrated with biotinylated peptide.

The target of assay [2] is T2, GST-WWP1.3.
T2 construct: Coated on polystyrene plates; also called WWP1 WW domain 3; not shown: glutathione S-transferase (GST) fusion partner
The description is as above.

The target in assay [3] is T3, GST-WWP1.2.
T3 construct: Coated on polystyrene plates; also called second WW domain of WWP1; WWP1 WW domain 2; not shown: glutathione S-transferase (GST) fusion partner
T3 sequence (chain, as listed by the source): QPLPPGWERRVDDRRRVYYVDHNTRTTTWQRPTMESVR
The assay is described as above.

Assay [4] addresses T4, GST-WWP1.4.
T4 construct: Coated on polystyrene plates; also called WWP1 WW domain 4; not shown: glutathione S-transferase (GST) fusion partner
The description is as above.

In the next assay the target is T5, GST alone (UniProt P08515 1-218 = GST).
T5 construct: Control coated on plates in the TRF assay
T5 sequence (P08515 whole entry): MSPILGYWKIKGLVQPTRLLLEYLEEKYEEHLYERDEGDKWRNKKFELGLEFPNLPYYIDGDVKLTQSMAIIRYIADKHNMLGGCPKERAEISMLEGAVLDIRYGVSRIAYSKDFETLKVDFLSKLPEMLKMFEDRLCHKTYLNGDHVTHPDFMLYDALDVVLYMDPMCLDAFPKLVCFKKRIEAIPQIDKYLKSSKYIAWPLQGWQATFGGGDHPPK
Put plainly: TRF (DELFIA) plate assay, GST coated, biotinylated peptide in solution. The protocol: (§1) Each domain was individually expressed as a GST fusion protein. A TRF binding assay was used to evaluate interactions of PY motif peptides with these domains or GST alone. WW domains were bound to a 96-well polystyrene assay plate (Costar) overnight at 4° C. in a 200 mM carbonate buffer (Pierce, Rockford, Ill.) at different concentrations (0, 1, 3, 10 μg/mL). Unbound WW domain was washed away with distilled, deionized water and the plates were blocked with 1% BSA/carbonate buffer for 2 hours at room temperature. The plates were then washed with Tris/Tween buffer: 50 mM Tris pH 7.5, 100 mM NaCl, 1 mM EDTA, 1% BSA, 1 mM DTT, 0.1% Tween20, protease inhibitor cocktail (Boehringer-Mannheim).
(§2) These biotinylated peptides were solvated in Tris/Tween buffer and added to the assay plates (30 μM). The plates were incubated at 4° C. for varying amounts of capture time. The plates were then washed with PBS/0.1% Triton X100 and probed for 1 hour at room temperature with 1 μg/mL Europium-labeled streptavidin (DELFIA; Wallac Oy, Turku, Finland) in DELFIA Assay Buffer/0.1% Triton X100. The unbound Europium-labeled streptavidin was washed with PBS/0.1% Triton X100. Europium was released for time-resolved fluorescence measurements with the DELFIA Enhancement Buffer. Measurements were made on either the DELFIA 1234 or Victor fluorometers.

Assay [5] deals with T2, GST-WWP1.3. The assay is described as follows: TRF (DELFIA) plate assay, GST-WW domain coated at 0-10 µg/mL, biotinylated peptide 30 µM. The protocol:
as §1, §2

The target of assay [6] is T3, GST-WWP1.2. Described as above. The procedure: as §1, §2
For assay [7], the target named is T4, GST-WWP1.4. Described as above. The procedure:
as §1, §2

The target in assay [8] is T3, GST-WWP1.2. Put plainly: TRF (DELFIA) plate assay, peptide titration of coated GST-WW domain, GST background subtracted; nonlinear least squares fit and Scatchard analysis. The protocol: FIGS. 8A-8B are graphs illustrating the binding of increasing concentrations of a Smad7 PY motif peptide to WWP1 WW domain peptides. In FIG. 8A, binding to four GST fusion peptides (GST-WWP1.1, GST-WWP1.2, GST-WWP1.3 and GST-WWP1.4) is shown, as well as binding to RSP5.2 WW domain. WW domain peptides were coated on polystyrene plates at the indicated receptor coating concentrations, and blocked with BSA. Biotinylated PY motif peptide was then added at the indicated concentrations. Binding was assessed using a time-resolved fluorescence assay and is shown as cps. FIG. 8B presents a Scatchard analysis of the Smad7 PY motif to WWP1.2 and WWP1.4, as indicated.
A detailed evaluation of the interactions of Smad 7 with the WWP1 WW domains and the second WW domain from RSP5 was undertaken. GST was used to correct for nonspecific background interactions. The peptide titration of the WW domains was evaluated by a nonlinear, least squares fit of the data and Scatchard analysis (FIGS. 8A-8B).

The target in assay [9] is T1, GST-WWP1.1. Put plainly: TRF (DELFIA) plate assay, GST-WW domain coated, biotinylated peptide in solution. The procedure:
as §1, §2

For assay [10], the target named is T2, GST-WWP1.3. The assay is described as above. The procedure: as §1, §2
Assay [11] concerns the target T3, GST-WWP1.2. Described as above. The protocol:
as §1, §2

Assay [12] concerns the target T4, GST-WWP1.4. The description is as above. The protocol: as §1, §2

Where no end group is shown, it is not given here. The star is where a group is joined. Biotin = O=C1N[C@H]2[C@H](CS[C@H]2CCCCC(=O)*)N1; Ahx = NCCCCCC(=O)O

T2 sequence (chain, as listed by the source): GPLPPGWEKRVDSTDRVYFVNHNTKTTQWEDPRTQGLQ
T1 sequence (chain, as listed by the source): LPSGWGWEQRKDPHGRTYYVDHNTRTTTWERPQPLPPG

B1: Smad3 PY motif peptide AGLTPPPGYLSEDG (peptide)
peptide: AGLTPPPGYLSEDG
modifications: not fully specified (N-terminus); also: biotin with C6 linker, end not given here
notes: also called Smad 3 peptide
In the case of B1, the binding result with GST-WWP1.1 [1], in the assay with GST-WWP1.3 [2], with GST-WWP1.2 [3] and in the assay with GST-WWP1.4 [4] was “no binding” each time.

B2: Smad1 PY motif peptide PADTPPPAYLPPED (peptide)
peptide: {Biotin-Ahx}-PADTPPPAYLPPED-NH2
SMILES: CC(C)C[C@H](NC(=O)[C@H](Cc1ccc(O)cc1)NC(=O)[C@H](C)NC(=O)[C@@H]1CCCN1C(=O)[C@@H]1CCCN1C(=O)[C@@H]1CCCN1C(=O)[C@@H](NC(=O)[C@H](CC(=O)O)NC(=O)[C@H](C)NC(=O)[C@@H]1CCCN1C(=O)CCCCCNC(=O)CCCC[C@@H]1SC[C@@H]2NC(=O)N[C@@H]21)[C@@H](C)O)C(=O)N1CCC[C@H]1C(=O)N1CCC[C@H]1C(=O)N[C@@H](CCC(=O)O)C(=O)N[C@@H](CC(=O)O)C(N)=O
notes: also called Smad 1 PY peptide; Biotin-Ahx-PADTPPPAYLPPED-CONH2
As to B2, the binding result in the assay with GST-WWP1.1 [1], in the assay with GST-WWP1.3 [2], with GST-WWP1.2 [3] and with GST-WWP1.4 [4] was “no binding” in each case.

B3: Smad5 PY motif peptide PADTPPPAYMPPDD (peptide)
peptide: PADTPPPAYMPPDD
modifications: not fully specified (N-terminus); also: biotin with C6 linker, end not given here
notes: also called Smad 5 peptide
For B3, the binding result with GST-WWP1.3 [2], with GST-WWP1.2 [3] and with GST-WWP1.4 [4] was “binds” in each case.

B4: Smad2 PY motif peptide IPETPPPGYISEDG (peptide)
peptide: IPETPPPGYISEDG
modifications: not fully specified (N-terminus); also: biotin with C6 linker, end not given here
notes: also called Smad 2 peptide
In the case of B4, the binding result in the assay with GST-WWP1.1 [1], with GST-WWP1.3 [2], in the assay with GST-WWP1.2 [3] and with GST-WWP1.4 [4] was “no binding” each time.

B5: WBP1 PY motif peptide, Biotin-Ahx-HPGTPPPPYTVGPG-CONH2 (peptide)
peptide: {Biotin-Ahx}-HPGTPPPPYTVGPG-NH2
SMILES: CC(C)[C@H](NC(=O)[C@@H](NC(=O)[C@H](Cc1ccc(O)cc1)NC(=O)[C@@H]1CCCN1C(=O)[C@@H]1CCCN1C(=O)[C@@H]1CCCN1C(=O)[C@@H]1CCCN1C(=O)[C@@H](NC(=O)CNC(=O)[C@@H]1CCCN1C(=O)[C@H](Cc1c[nH]cn1)NC(=O)CCCCCNC(=O)CCCC[C@@H]1SC[C@@H]2NC(=O)N[C@@H]21)[C@@H](C)O)[C@@H](C)O)C(=O)NCC(=O)N1CCC[C@H]1C(=O)NCC(N)=O
notes: also called WBP1 peptide
On to B5, for which the binding result with GST alone was “no binding (tested: 30 µM peptide)”; with GST-WWP1.3 [5], “binds”; with GST-WWP1.2 [6], “binds”; with GST-WWP1.4 [7], “binds”.

B6: Smad7 PY motif peptide ELESPPPPYSRYPM (peptide)
peptide: ELESPPPPYSRYPM
modifications: not fully specified (N-terminus); also: biotin with C6 linker, end not given here
notes: also called Smad 7 peptide
Usually Kd stands for the concentration at which binding is half-saturated. Read a low Kd as a tighter complex. In the assay with GST-WWP1.2 [8], B6 registered a Kd of 2400 nM.

B7: Smad6 PY motif peptide GPESPPPPYSRLSP (peptide)
peptide: GPESPPPPYSRLSP
modifications: not fully specified (N-terminus); also: biotin with C6 linker, end not given here
notes: also called Smad 6 peptide
Take B7: the binding result in the assay with GST-WWP1.3 [2], in the assay with GST-WWP1.2 [3] and with GST-WWP1.4 [4] was “binds” in each case.

B8: Nedd PY motif peptide, Biotin-Ahx-IPGTPPPNYDSLRL-CONH2 (peptide)
peptide: {Biotin-Ahx}-IPGTPPPNYDSLRL-NH2
SMILES: CC[C@H](C)[C@H](NC(=O)CCCCCNC(=O)CCCC[C@@H]1SC[C@@H]2NC(=O)N[C@@H]21)C(=O)N1CCC[C@H]1C(=O)NCC(=O)N[C@H](C(=O)N1CCC[C@H]1C(=O)N1CCC[C@H]1C(=O)N1CCC[C@H]1C(=O)N[C@@H](CC(N)=O)C(=O)N[C@@H](Cc1ccc(O)cc1)C(=O)N[C@@H](CC(=O)O)C(=O)N[C@@H](CO)C(=O)N[C@@H](CC(C)C)C(=O)N[C@@H](CCCNC(=N)N)C(=O)N[C@@H](CC(C)C)C(N)=O)[C@@H](C)O
B8: the binding result with GST-WWP1.1 [9], with GST-WWP1.3 [10], in the assay with GST-WWP1.2 [11], in the assay with GST-WWP1.4 [12] and in the assay with GST alone was “no binding (tested: 30 µM peptide)” in each case.

B9: Mutant Nedd PY motif peptide, Biotin-Ahx-IPGTPPPNHDSLRL-CONH2 (peptide)
peptide: {Biotin-Ahx}-IPGTPPPNHDSLRL-NH2
SMILES: CC[C@H](C)[C@H](NC(=O)CCCCCNC(=O)CCCC[C@@H]1SC[C@@H]2NC(=O)N[C@@H]21)C(=O)N1CCC[C@H]1C(=O)NCC(=O)N[C@H](C(=O)N1CCC[C@H]1C(=O)N1CCC[C@H]1C(=O)N1CCC[C@H]1C(=O)N[C@@H](CC(N)=O)C(=O)N[C@@H](Cc1c[nH]cn1)C(=O)N[C@@H](CC(=O)O)C(=O)N[C@@H](CO)C(=O)N[C@@H](CC(C)C)C(=O)N[C@@H](CCCNC(=N)N)C(=O)N[C@@H](CC(C)C)C(N)=O)[C@@H](C)O
Take B9: the binding result in the assay with GST-WWP1.1 [9], with GST-WWP1.3 [10], in the assay with GST-WWP1.2 [11], with GST-WWP1.4 [12] and with GST alone was “no binding (tested: 30 µM peptide)” in each case.

For the origin of these results see patent US20030119072A1 (SIGNAL PHARMACEUTICALS, published 2003).
